# Reference: the supplement of paper PMC12764529
# ± gives the half width of the 95% confidence interval.
# Test: folding stability dG unfold from chymotrypsin proteolysis; higher = more stable
# How it was run: (§1)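 Unfolding free energy was derived, per protease or combined, against a sequence-predicted unfolded-state K50 and a shared folded-state K50, starting from K50 inferred by Bayesian fitting of sequencing counts. Digestion with trypsin and chymotrypsin was carried out on designed mini-proteins under 80 residues without cysteine in a PA-tagged cDNA display construct. Only designs with AlphaFold2 dimer inter-PAE above 15 were kept.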
row,Sequence,folding stability dG unfold
1,SAGGKKKKLVIKDKKTNKYYEIENAKEIVKIEKVKGKDGKTYYVIYFKKTKKKIVIKTKEDLEKALKSAGGS [r8_206_TrROS_Hall],1.18 ± 0.38 kcal/mol
2,SAGGSSSLSGLKNVTEEPRLAPDSDEEEVLITYENGYLERREPGVLEFYDPENGKVLSKKNVPYHHSAGGSA [r2_374_JUSTAS],-0.0765 ± 0.3 kcal/mol
3,SAMTIEEAIEKGKIGAIVKVEVELPNGGKIEIEIFIESESLEEALEKIKAFFEALNLKVKIIEVKVFPVSAG [r14_854_TrMRF],2.87 ± 0.1 kcal/mol
4,SAGGSAMLPDEVTVKPVEMPVPPDLTLEELEQEVRERAGPGTSVEVSYDPATGVATVTVTDARPALSAGGSA [r15_749_JUSTAS],1.44 ± 0.029 kcal/mol
5,SAGTELELEAEAEVLFPELGTRARVRVRARVRPTEDEVEVELEVEAEFEPLPLVPPIVSPEENPELAEGSAG [r14_435_TrMRF],2.7 ± 0.14 kcal/mol
6,SAGGSASIGEELAKELFPDLPLKVEPKEVPLEDGKTETVVTATFPDGKKVTITFEGDKIVEVTEVESAGGSA [r15_417_JUSTAS],0.994 ± 0.074 kcal/mol
7,SAGGSAGGSKTIEIVVPPNTTPEEIAKKLKELFPDAKITSVEVYVDKKTKKIVYVKVKIEVKPSAGGSAGGS [r12_822_TrROS_Hall],3.82 ± 0.057 kcal/mol
8,KPKIKITITFNKETGKITITAVNKDNNVVVKTEFELKDGKLTMKIEVKNKKTNKTYTIEIEIKLLKPGEKLS [r1_404_TrROS_Hall],4.32 ± 0.094 kcal/mol
9,SAGGSAGGSAGGSTILILDPETKKLYLIRIEKREDGKEELKLKVYEFDLKTGEMKEYELSAGGSAGGSAGGS [r10_1041_TrROS_Hall],4.68 ± 0.19 kcal/mol
10,SAGGSAGGSASVVADENKIVVTFPNGKVVELDLSDPKKAKEKLLALKPLDIPPITLELVPPASAGGSAGGSA [r18_68_JUSTAS],0.842 ± 0.041 kcal/mol
11,SAGGSAGGSAMITTPKGERFEVPLRLTPDGRLEVLVVTDRPDDPEVRELAERLARELAERLSAGGSAGGSAG [r3_163_TrMRF],0.394 ± 0.17 kcal/mol
12,SAGGLLVADEAGVPLSPVPPVPPIPVQVTFPDGTKVTIEYYPGLNEVKVEYEGDDPAKVAEIVKEILKSAGG [r13_701_JUSTAS],0.444 ± 0.11 kcal/mol
13,SMKIVEVEVFEDPETGKLVVIVKLDGEEVVEVEEGEKVEIEVEPGDTLLVFVVDAETGEIKEEKEIKVEESA [r9_209_TrROS_Hall],1.2 ± 0.12 kcal/mol
14,SAGMKPGEPITLVLPDGVVIPIKINPNGGVEIDDIEPPPDGTYNMDARHPNNGKEITLNIKLPPGFQILSAG [r5_394_TrROS],0.239 ± 0.77 kcal/mol
15,SAGGSAGGSAGSKDTMYLLKVKDLGENELKETYIEVPAEKVQEVIDALSSDPNLEIEVIPSAGGSAGGSAGG [r17_50_TrMRF],1.09 ± 0.054 kcal/mol
16,SAGIEEEVRKLFPDRELEVKVKEKRLKAPNGVPVTLYEVTVTFPDGSRYKLTLTKTPNSVTLSVTPLDASAG [r14_28_JUSTAS],3.34 ± 0.035 kcal/mol
17,MDDVVRVVLPVRVRIRDPVAPDRPEREVEILLERDVPLDEESLEELLEEAERAAEELARALGGEEAEVEPVS [r1_300_TrMRF],1.54 ± 0.024 kcal/mol
18,SAGGSAGGSAEVEIEFVSYDPSTGRLVRKRVKLKLLPDPKGGPVEVVEVEVDPGGPVPAGASAGGSAGGSAG [r3_397_TrMRF],2.08 ± 0.046 kcal/mol
19,SAGGIAEAIGEAIAKAPGVAEVEVDIEITKIEPTPGDGAYAHIDIRVRARHPVTGEEVELRFDIVFPLDSAG [r5_176_TrMRF],3.18 ± 0.15 kcal/mol
20,SAGGDPETPTTITAPVDPATGTTTWVVNDGSSTSTIPSSLSLEELKKLGLTKAEPLPDGTLRFTILASAGGS [r8_382_JUSTAS],0.494 ± 0.081 kcal/mol
21,SAKAELEIKFPGWKVTVEIEDVDPKNDMVKLKAFFRNGWVFTQTVNPDDGKIEIPIIPVKPDPDGKWKFSAG [r14_466_TrROS],1.38 ± 0.096 kcal/mol

# Test: folding stability dG unfold from trypsin proteolysis; higher = more stable
# How it was run: as §1
row,Sequence,folding stability dG unfold
1,SAGGSATIEEIAQEIADNLPPGRKYRAKIYYDGEERTYEFRNPNGFKINITWKNGKIRSIDIEPRPSAGGSA [r15_175_TrROS],1.63 ± 0.046 kcal/mol
2,SMIKIKLKNGMEITIEKTPEKVKIKLKATGKEIELPLEELENMTEEELLEKLRKLAEELGMEVEEVEIEPSA [r9_1211_TrROS_Hall],3.18 ± 0.14 kcal/mol
3,SAGGMNVSYLFSKSVPKEEIEAYLKKLDPNKKYKFEELEPEEIEKLPESIEVIEKPVDETLRLVLVEESAGG [r13_649_JUSTAS],-0.323 ± 0.092 kcal/mol
4,SAGGSAGGKKEIKIYLVSDLPEEDAIETAEKIKKGLAEELGVSPEELNITVEVAILDPENLELNPESAGGSA [r15_918_TrMRF],0.179 ± 0.049 kcal/mol
5,SAGGSAGGSAMLENARPFPIDLPTKYRLRIVLPDGRVLELEYDPKSGVPRLRVVPVEEALKRSAGGSAGGSA [r18_247_TrMRF],1.19 ± 0.012 kcal/mol
6,SAGGPPWVRVVDVRIEPVEDGGERRITLTFPPDVTLEEVRERVREMLPPGAEAELTVERVEVRPVLASAGGS [r16_393_JUSTAS],1.27 ± 0.016 kcal/mol
7,SAGGSAGGSAKKVKIEEKDGELTITVEPGEKVLIVYPDGTVEEVEVKEGDTITLPPGAKVLPSAGGSAGGSA [r18_452_TrROS_Hall],0.513 ± 0.11 kcal/mol
8,SAGMVEVTVTIIPKKVKDKWVNEAVVSITVPGGPTSTITMPFGSKEEAIKYLKEKGLEVSEENVSVEIESAG [r5_233_JUSTAS],2.31 ± 0.12 kcal/mol
9,SAMEVIELEFPSVEELEAALKEKFNVEVEKLPDGTKRIKVEVDGELVLIEITDDKVRIRIISKEELEKLSAG [r14_402_TrROS_Hall],3.05 ± 0.095 kcal/mol
10,SMYVIETSANKTYTVNVPPDGLVTITYPDGSTETRKFTSEEDLEAFAEELSKKYPDAPATIKPVPLEELGSA [r9_1206_JUSTAS],1.21 ± 0.11 kcal/mol
11,SAGGSAPDWKIVDIEPTDNSITITVEAPPGVRVMIFNPGNGKVQHRPFPPGDTITIPPRMYIMVWVSAGGSA [r15_418_TrROS],2.43 ± 0.032 kcal/mol
12,SAGPKVKLIKAEFFPDGRLVVYAEVESSNGEPAFAVGVFDPRNPNKAHVKVYNPSTGKVSEFEVTVTPGSAG [r5_345_TrMRF],2.57 ± 0.054 kcal/mol
13,SAGGSKKVKIKITKIEIFPNGTIKVTVKNEDGSEVTITITKNKDGKYKIKIKNKKTKKIFEFEIPLSAGGSA [r2_361_TrROS_Hall],2.22 ± 0.089 kcal/mol
14,SAGGSAGGSAGGLPEDDNYVRVKITFTIMMMEFDPKNGKMQMFPISIEIEIYIPPGAELSAGGSAGGSAGGS [r10_133_TrROS],2.36 ± 0.12 kcal/mol
15,SAGGSFDPVEITTLEDGTIKILAKDPNTNKLFITTLKAKSIKTSSLGNGKTITTIPHEKVEESEELPSAGGS [r16_615_JUSTAS],-0.795 ± 0.66 kcal/mol
16,SAGDSVVIPFRLPPENLSPEELLEWIIDEVKEAAKAGLPHKVTIQVPYPGKPWYITIDPKNGEIEIVPSAGG [r19_204_TrROS],1.04 ± 0.088 kcal/mol
17,SAGGSAGGSASEIMDEFPNLEIDNVNPDHGMMIIKWPDGWYWRVNVGNGEIEPVSPEDLEDMSAGGSAGGSA [r18_381_TrROS],0.447 ± 0.037 kcal/mol
18,SAGGSAGGSSLEEIAKKLGLKPGMRVRLSDGKVLEVPSLDDLKAALEAGLSLEELKKIEIEPVSAGGSAGGS [r12_430_TrROS_Hall],1.13 ± 0.023 kcal/mol
19,SAGGSAGGSAGEVEFELTVKLTVTHPSGGKSEIEVPVKITLPVVDISKEILESNPEVVKKANSAGGSAGGSA [r18_114_TrMRF],0.486 ± 0.11 kcal/mol
20,SAGMGSDVPVLTAVLSVLNPETGEEVTIEVPGRNDYGEGKLIRPVSPEDLLAAALAVADALLKDPSLKASAG [r5_426_TrMRF],1.36 ± 0.036 kcal/mol
21,SPNMQPVEMEFKIKVPGKPVDIKIEMWRMPDGQTRMDIRYPDGRSIMFNPSNGSIKIYDPKDGKPLAEISSA [r9_970_TrROS],1.1 ± 0.057 kcal/mol

row,Sequence,folding stability dG unfold
1,SAGGKKKKLVIKDKKTNKYYEIENAKEIVKIEKVKGKDGKTYYVIYFKKTKKKIVIKTKEDLEKALKSAGGS [r8_206_TrROS_Hall],1.26 ± 0.24 kcal/mol
2,SAGGSSSLSGLKNVTEEPRLAPDSDEEEVLITYENGYLERREPGVLEFYDPENGKVLSKKNVPYHHSAGGSA [r2_374_JUSTAS],-0.806 ± 0.35 kcal/mol
3,SAMTIEEAIEKGKIGAIVKVEVELPNGGKIEIEIFIESESLEEALEKIKAFFEALNLKVKIIEVKVFPVSAG [r14_854_TrMRF],3.4 ± 0.19 kcal/mol
4,SAGGSAMLPDEVTVKPVEMPVPPDLTLEELEQEVRERAGPGTSVEVSYDPATGVATVTVTDARPALSAGGSA [r15_749_JUSTAS],-0.162 ± 0.035 kcal/mol
5,SAGTELELEAEAEVLFPELGTRARVRVRARVRPTEDEVEVELEVEAEFEPLPLVPPIVSPEENPELAEGSAG [r14_435_TrMRF],3.19 ± 0.12 kcal/mol
6,SAGGSASIGEELAKELFPDLPLKVEPKEVPLEDGKTETVVTATFPDGKKVTITFEGDKIVEVTEVESAGGSA [r15_417_JUSTAS],0.445 ± 0.095 kcal/mol
7,SAGGSAGGSKTIEIVVPPNTTPEEIAKKLKELFPDAKITSVEVYVDKKTKKIVYVKVKIEVKPSAGGSAGGS [r12_822_TrROS_Hall],2.68 ± 0.1 kcal/mol
8,KPKIKITITFNKETGKITITAVNKDNNVVVKTEFELKDGKLTMKIEVKNKKTNKTYTIEIEIKLLKPGEKLS [r1_404_TrROS_Hall],2.58 ± 0.19 kcal/mol
9,SAGGSAGGSAGGSTILILDPETKKLYLIRIEKREDGKEELKLKVYEFDLKTGEMKEYELSAGGSAGGSAGGS [r10_1041_TrROS_Hall],3.25 ± 0.2 kcal/mol
10,SAGGSAGGSASVVADENKIVVTFPNGKVVELDLSDPKKAKEKLLALKPLDIPPITLELVPPASAGGSAGGSA [r18_68_JUSTAS],-0.139 ± 0.071 kcal/mol
11,SAGGSAGGSAMITTPKGERFEVPLRLTPDGRLEVLVVTDRPDDPEVRELAERLARELAERLSAGGSAGGSAG [r3_163_TrMRF],0.506 ± 0.11 kcal/mol
12,SAGGLLVADEAGVPLSPVPPVPPIPVQVTFPDGTKVTIEYYPGLNEVKVEYEGDDPAKVAEIVKEILKSAGG [r13_701_JUSTAS],0.146 ± 0.15 kcal/mol
13,SMKIVEVEVFEDPETGKLVVIVKLDGEEVVEVEEGEKVEIEVEPGDTLLVFVVDAETGEIKEEKEIKVEESA [r9_209_TrROS_Hall],0.541 ± 0.12 kcal/mol
14,SAGMKPGEPITLVLPDGVVIPIKINPNGGVEIDDIEPPPDGTYNMDARHPNNGKEITLNIKLPPGFQILSAG [r5_394_TrROS],1.93 ± 0.13 kcal/mol
15,SAGGSAGGSAGSKDTMYLLKVKDLGENELKETYIEVPAEKVQEVIDALSSDPNLEIEVIPSAGGSAGGSAGG [r17_50_TrMRF],1.06 ± 0.041 kcal/mol
16,SAGIEEEVRKLFPDRELEVKVKEKRLKAPNGVPVTLYEVTVTFPDGSRYKLTLTKTPNSVTLSVTPLDASAG [r14_28_JUSTAS],2.73 ± 0.2 kcal/mol
17,MDDVVRVVLPVRVRIRDPVAPDRPEREVEILLERDVPLDEESLEELLEEAERAAEELARALGGEEAEVEPVS [r1_300_TrMRF],0.135 ± 0.09 kcal/mol
18,SAGGSAGGSAEVEIEFVSYDPSTGRLVRKRVKLKLLPDPKGGPVEVVEVEVDPGGPVPAGASAGGSAGGSAG [r3_397_TrMRF],1.91 ± 0.053 kcal/mol
19,SAGGIAEAIGEAIAKAPGVAEVEVDIEITKIEPTPGDGAYAHIDIRVRARHPVTGEEVELRFDIVFPLDSAG [r5_176_TrMRF],2.89 ± 0.14 kcal/mol
20,SAGGDPETPTTITAPVDPATGTTTWVVNDGSSTSTIPSSLSLEELKKLGLTKAEPLPDGTLRFTILASAGGS [r8_382_JUSTAS],0.289 ± 0.022 kcal/mol
21,SAKAELEIKFPGWKVTVEIEDVDPKNDMVKLKAFFRNGWVFTQTVNPDDGKIEIPIIPVKPDPDGKWKFSAG [r14_466_TrROS],1.21 ± 0.032 kcal/mol
